Measurements from patent US20190282683A1.

Biological target: Ag85b protein from Mycobacterium tuberculosis (poly-His tagged test protein) (Mycobacterium tuberculosis)

Substance: splenocytes of mice injected with Sbi-III-IV-Ag85b (cells without a defined receptor)
- Secreted IFN-gamma in the tissue culture supernatant (ELISA): 4 fold
